Series [1] can be described thus: Thermostability (loss of Soret band at increasing temperatures). The following applies: cell extracts heated 10 minutes. Format: physicochemical. The method, then:
Thermostability was assayed by monitoring the loss of the Soret band at increasing temperatures. […] However, thermostability may be important for retention of catalytic activity: the two chimeras that lacked peroxygenase activity were also the least thermostable.
Cell extracts were heated in a thermocycler for 10 minutes at various temperatures, followed by cooling to 4° C. Extracts were centrifuged for 5 minutes at 3500×g to remove any precipitates. Carbon monoxide reduced difference spectroscopy was used to quantitate the amount of P450. The reduction of the carbon monoxide peak was monitored over a range of temperatures.

The nature of series [2]: Peroxidase activity with ABTS and H2O2. Format: biochemical. The following applies: for Peroxidase activity: 10 mM ABTS, 20 mM H2O2, pH 5.0, activities <0.2 not detectable (N.D.); for peroxidase activity relative to parents: ABTS. From the text:
P450s can reduce peroxide to water (and a proton) using a mechanism similar to that of peroxidases, although the intrinsic rate for P450s is many orders of magnitude slower. (Mansuy, D., Comp Biochem Physiol C Pharmacol Toxicol Endocrinol 121, 5-14 (1998)). It has been proposed that the earliest P450 function may have been as a peroxidase. (Gotoh, O., Cytochrome P450, 2nd Edition, pp. 255-272 (1993)). To investigate how recombination affects P450 peroxidase activity, the colorimetric substrate 2,2′-azino-bis(3-ethylbenzothiazoline-6-sulfonate) (ABTS) was used to monitor this reaction (Childs et al., Biochem J 145,93-103 (1975)).
This example provides an example of how one can measure peroxidase activity. Initial rates of peroxidase activity were measured by monitoring the accumulation of the radical cation of ABTS at 414 nm (Childs et al., Biochem J., 145:93-103 (1975)). Enzyme (1 μM) was mixed with 10 mM ABTS in 200 mM phosphate buffer (pH 5.0) in a cuvette at room temperature. Samples were zeroed and reactions were initiated with the addition of H2O2 to a concentration of 20 mM. The absorbance at 414 nm was monitored for 5 minutes. Rates were determined from the steepest portion of the time course. An extinction coefficient of […] for ABTS was used.

Series [3] can be described thus: Peroxygenase substrate activity profile. Format: biochemical. The conditions noted are these: 20 mM H2O2. The method, then:
The chimeras were assayed for hydroxylation of p-nitrophenoxydodecanoic acid (12-pNCA), a fatty acid analog that is hydroxylated by CYP102A1 and CYP102A2 to yield p-nitrophenolate (Schwaneberg et al., Anal Biochem 269,359-366 (1999)). […] When hydroxylation rates for the parent CYP102 enzymes were monitored using the maximum soluble concentrations of these substrates, activity could only be detected on 2-phenoxy-ethanol.
Chimeras were assayed for peroxygenase activity on 12-pNCA, 2-phenoxy -ethanol and allyloxy-benzene. […] Rates are reported in nmol product/nmol P450/minute. […] Those with no activity include 65-256 and 277-365. Those with new activity include 165-256, 191-335, and 43-135.
This Example provides one method by which peroxygenase activity of a P450 enzyme may be characterized. First order rates for p-nitrophenolate accumulation were determined using 1 μM enzyme, 20 mM H2O2, 250 μM 12-pNCA and 0.5% dimethyl sulfoxide (DMSO) in 100 mM Tris-HCl (pH 8.2) at room temperature. Enzyme, substrate, buffer and DMSO were combined in a cuvette and zeroed at 410 nm. Reaction mixtures were incubated for 4 minutes and initiated by the addition of H2O2 to a final concentration of 20 mM. Initial rates were determined by monitoring the accumulation of p-nitrophenolate at 410 nm, and data from the first six seconds were used to determine initial rates. […] The extinction coefficient of p-nitrophenolate is 13,200 M^−1cm^−1 (Schwaneberg et al., Anal Biochem 269:359-366 (1999)).
Rates on 2-phenoxy-ethanol and allyloxy-benzene were determined using 2 μM enzyme, 20 mM H2O2, 1% DMSO, and 1% acetone in 100 mM N-[2-hydroxyethyl]piperazine-N′-[3-propanesulfonic acid] (Epps) (pH 8.2) at room temperature. Substrate concentrations for 2-phenoxy-ethanol (100 mM) and allyloxy benzene (50 mM) maintained saturation. Reactions were initiated by the addition of H2O2 and quenched at appropriate times using an equal volume of a solution containing 4M urea and 100 mM NaOH. 120 μl of 0.6% 4-AAP was added, followed by mixing and addition of 120 μl of 0.6% potassium persulfate. Color was allowed to develop for 20 minutes before absorbance was read at 500 nm. Rates were determined from the linear region of the time course. The major products were determined by GC/MS to be the hemiacetal, which decomposes to phenol. The extinction coefficient for the 4-AAP/phenol complex was determined to be 4,800 M^−1cm^−1. The results can be seen in FIG. 4.

B1: Chimera 364-403: CYP102A1 heme domain with residues 364-403 from CYP102A2 (protein)
chain: TIKEMPQPKTFGELKNLPLLNTDKPVQALMKIADELGEIFKFEAPGRVTRYLSSQRLIKEACDESRFDKNLSQALKFVRDFAGDGLATSWTHEKNWKKAHNILLPSFSQQAMKGYHAMMVDIAVQLVQKWERLNADEHIEVPEDMTRLTLDTIGLCGFNYRFNSFYRDQPHPFITSMVRALDEAMNKLQRANPDDPAYDENKRQFQEDIKVMNDLVDKIIADRKASGEQSDDLLTHMLNGKDPETGEPLDDENIRYQIITFLIAGHETTSGLLSFALYFLVKNPHVLQKAAEEAARVLVDPVPSYKQVKQLKYVGMVLNEALRLWPTAPAFSLYAKEDTVLGGEYPLEKGDELMVLIPQLHRDRDAWGKDAEEFRPERFEHQDQVPHHAYKPFGNGQRACIGMQFALHEATLVLGMMLKHFDFEDHTNYELDIKETLTLKPEGFVVKAKSKKIPLGGIPSPST
modifications: Chimeric Cytochrome P450 heme group sequence from Bacillus megaterium and Bacillus subtilis
notes: CYP102A1 heme domain with residues 364-403 from CYP102A2
For B1, in series [1], the Tm stood at 51 °C. The Peroxidase activity in series [2] is listed as 1 nmol product/nmol P450/min. Moreover, the “substrate activity profile relative to parents” value in series [3] was “parent-like profiles”.

B2: Chimera 165-256M: mirror chimera of 165-256, sequences from opposite parents at every position (protein)
chain: KETSPIPQPKTFGPLGNLPLIDKDKPTLSLIKLAEEQGPIFQIHTPAGTTIVVSGHELVKEVCDEERFDKSIEGALEKVRAFSGDGLATSWTHEPNWRKAHNILMPTFSQRAMKDYHEKMVDIAVQLIQKWARLNPNEAVDVPGDMTRLTLDTIGLCGFNYRFNSFYRDQPHPFITSMVRALDEAMNKLQRANPDDPAYDENKRQFQEDIKVMNDLVDKIIADRKASGEQSDDLLTHMLNGKDPETGEPLDDENIRYQIITFLIAGHETTSGLLSFATYFLLKHPDKLKKAYEEVDRVLTDAAPTYKQVLELTYIRMILNESLRLWPTAPAFSLYPKEDTVIGGKFPITTNDRISVLIPQLHRDRDAWGKDAEEFRPERFEHQDQVPHHAYKPFGNGQRACIGMQFALHEATLVLGMILKYFTLIDHENYELDIKQTLTLKPGDFHISVQSRHQEAIHADVQAAE
modifications: Chimeric Cytochrome P450 heme group sequence from Bacillus megaterium and Bacillus subtilis
B2: the Tm in series [1] came to 50 °C. Also, in series [2], the Peroxidase activity was 3.5 nmol product/nmol P450/min and the “peroxidase activity relative to parents” value is recorded as “did not show similarly enhanced levels”. Further, the “substrate activity profile relative to parents” value in series [3] is “parent-like profiles”.

B3: Chimera 70-299: CYP102A1 heme domain with residues 70-299 from CYP102A2 (protein)
chain: TIKEMPQPKTFGELKNLPLLNTDKPVQALMKIADELGEIFKFEAPGRVTRYLSSQRLIKEACDESRFDKSIEGALEKVRAFSGDGLATSWTHEPNWRKAHNILMPTFSQRAMKDYHEKMVDIAVQLIQKWARLNPNEAVDVPGDMTRLTLDTIGLCGFNYRFNSYYRETPHPFINSMVRALDEAMHQMQRLDVQDKLMVRTKRQFRYDIQTMFSLVDSIIAERRANGDQDEKDLLARMLNVEDPETGEKLDDENIRFQIITFLIAGHETTSGLLSFATYFLLKHPDKLKKAYEEVDRVLTDPVPSYKQVKQLKYVGMVLNEALRLWPTAPAFSLYAKEDTVLGGEYPLEKGDELMVLIPQLHRDKTIWGDDVEEFRPERFENPSAIPQHAFKPFGNGQRACIGQQFALHEATLVLGMMLKHFDFEDHTNYELDIKETLTLKPEGFVVKAKSKKIPLGGIPSPST
modifications: Chimeric Cytochrome P450 heme group sequence from Bacillus megaterium and Bacillus subtilis
notes: CYP102A1 heme domain with residues 70-299 from CYP102A2
On to B3, for which the Tm in series [1] came to 42 °C. In series [2], the Peroxidase activity was 0.8 nmol product/nmol P450/min. Besides, in series [3], the “substrate activity profile relative to parents” value is recorded as “altered activity”.

B4: CYP102A2: parent P450 heme domain from Bacillus subtilis, with the F88A mutation (protein, listed as Bacillus subtilis)
chain: KETSPIPQPKTFGPLGNLPLIDKDKPTLSLIKLAEEQGPIFQIHTPAGTTIVVSGHELVKEVCDEERFDKSIEGALEKVRAFSGDGLATSWTHEPNWRKAHNILMPTFSQRAMKDYHEKMVDIAVQLIQKWARLNPNEAVDVPGDMTRLTLDTIGLCGFNYRFNSYYRETPHPFINSMVRALDEAMHQMQRLDVQDKLMVRTKRQFRYDIQTMFSLVDSIIAERRANGDQDEKDLLARMLNVEDPETGEKLDDENIRFQIITFLIAGHETTSGLLSFATYFLLKHPDKLKKAYEEVDRVLTDAAPTYKQVLELTYIRMILNESLRLWPTAPAFSLYPKEDTVIGGKFPITTNDRISVLIPQLHRDRDAWGKDAEEFRPERFEHQDQVPHHAYKPFGNGQRACIGMQFALHEATLVLGMILKYFTLIDHENYELDIKQTLTLKPGDFHISVQSRHQEAIHADVQAAE
For the molecule B4, the Tm in series [1] is 44 °C. For the same molecule, in series [2], the Peroxidase activity was 0.4 nmol product/nmol P450/min and the “peroxidase activity relative to parents” value was “low, but detectable peroxidase activity”.

B5: Chimera 169-197M: mirror chimera of 169-197, sequences from opposite parents at every position (protein)
chain: KETSPIPQPKTFGPLGNLPLIDKDKPTLSLIKLAEEQGPIFQIHTPAGTTIVVSGHELVKEVCDEERFDKSIEGALEKVRAFSGDGLATSWTHEPNWRKAHNILMPTFSQRAMKDYHEKMVDIAVQLIQKWARLNPNEAVDVPGDMTRLTLDTIGLCGFNYRFNSYYREQPHPFITSMVRALDEAMNKLQRANPDDPAMVRTKRQFRYDIQTMFSLVDSIIAERRANGDQDEKDLLARMLNVEDPETGEKLDDENIRFQIITFLIAGHETTSGLLSFATYFLLKHPDKLKKAYEEVDRVLTDAAPTYKQVLELTYIRMILNESLRLWPTAPAFSLYPKEDTVIGGKFPITTNDRISVLIPQLHRDRDAWGKDAEEFRPERFEHQDQVPHHAYKPFGNGQRACIGMQFALHEATLVLGMILKYFTLIDHENYELDIKQTLTLKPGDFHISVQSRHQEAIHADVQAAE
modifications: Chimeric Cytochrome P450 heme group sequence from Bacillus megaterium and Bacillus subtilis
As to B5, the Tm in series [1] stood at 43 °C. Also, in series [2], the Peroxidase activity was 0.3 nmol product/nmol P450/min and the “peroxidase activity relative to parents” value is recorded as “did not show similarly enhanced levels”. For the same molecule, in series [3], the “substrate activity profile relative to parents” value is on record as “altered activity”.
